Data on one molecule can be found in patent publication US20090203602A1 (AMERICAN TYPE CULTURE COLLECTION, published 2009).

Targets include IR (h) (human, UniProt P06213 1005-1310, limits assumed); MAPK1 (h) (human, UniProt P28482); PKCβII (h) (human, UniProt P05771-2 1-673); MAPK2 (h) (human, UniProt P28482 1-360, limits assumed); PKA(h) (human, UniProt P17612 1-351); GSK3β (h) (human, UniProt P49841 1-420, limits assumed); PKBβ (h) (human, UniProt P31751 1-481, limits assumed).
Holding throughout (assay): cell-based or functional assay
In assay [1] the target is RPS6KB1 (p70S6K) Ribosomal protein S6 kinase, 70 kDa, polypeptide 1 (human, UniProt P23443 1-421, limits assumed).
RPS6KB1 (p70S6K) Ribosomal protein S6 kinase, 70 kDa, polypeptide 1, sequence (P23443 1-421 limits assumed): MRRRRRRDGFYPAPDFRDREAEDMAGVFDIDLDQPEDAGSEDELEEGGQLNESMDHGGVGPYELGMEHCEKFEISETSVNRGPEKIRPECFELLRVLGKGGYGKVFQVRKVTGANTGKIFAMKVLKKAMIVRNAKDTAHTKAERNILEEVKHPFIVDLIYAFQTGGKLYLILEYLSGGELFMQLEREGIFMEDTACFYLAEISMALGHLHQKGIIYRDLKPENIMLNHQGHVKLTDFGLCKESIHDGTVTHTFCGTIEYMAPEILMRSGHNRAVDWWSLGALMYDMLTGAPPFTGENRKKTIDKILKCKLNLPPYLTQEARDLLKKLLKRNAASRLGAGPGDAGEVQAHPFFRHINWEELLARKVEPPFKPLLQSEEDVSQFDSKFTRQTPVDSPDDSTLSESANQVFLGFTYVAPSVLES
For another assay, the target named is T1, PDK1 (h) (human, UniProt O15530 1-556, limits assumed).
T1 sequence (looked up): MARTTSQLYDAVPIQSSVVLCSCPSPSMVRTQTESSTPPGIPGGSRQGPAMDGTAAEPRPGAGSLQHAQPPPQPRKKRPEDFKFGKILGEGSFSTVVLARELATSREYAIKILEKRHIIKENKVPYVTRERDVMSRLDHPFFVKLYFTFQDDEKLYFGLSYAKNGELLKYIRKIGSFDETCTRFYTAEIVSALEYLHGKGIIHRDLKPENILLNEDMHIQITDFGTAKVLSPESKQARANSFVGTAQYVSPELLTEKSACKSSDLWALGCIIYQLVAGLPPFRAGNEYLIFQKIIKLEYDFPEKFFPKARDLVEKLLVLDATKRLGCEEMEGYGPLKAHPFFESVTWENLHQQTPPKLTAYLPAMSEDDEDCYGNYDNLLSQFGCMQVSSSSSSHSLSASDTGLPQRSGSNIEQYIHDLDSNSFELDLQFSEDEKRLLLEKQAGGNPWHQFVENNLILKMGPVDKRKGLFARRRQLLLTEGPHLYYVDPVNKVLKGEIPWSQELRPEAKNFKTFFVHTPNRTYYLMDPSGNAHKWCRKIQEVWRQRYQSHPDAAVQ

In another assay the target is T2, PKCζ (h) (human, UniProt Q05513 1-592, limits assumed).
T2 sequence (looked up): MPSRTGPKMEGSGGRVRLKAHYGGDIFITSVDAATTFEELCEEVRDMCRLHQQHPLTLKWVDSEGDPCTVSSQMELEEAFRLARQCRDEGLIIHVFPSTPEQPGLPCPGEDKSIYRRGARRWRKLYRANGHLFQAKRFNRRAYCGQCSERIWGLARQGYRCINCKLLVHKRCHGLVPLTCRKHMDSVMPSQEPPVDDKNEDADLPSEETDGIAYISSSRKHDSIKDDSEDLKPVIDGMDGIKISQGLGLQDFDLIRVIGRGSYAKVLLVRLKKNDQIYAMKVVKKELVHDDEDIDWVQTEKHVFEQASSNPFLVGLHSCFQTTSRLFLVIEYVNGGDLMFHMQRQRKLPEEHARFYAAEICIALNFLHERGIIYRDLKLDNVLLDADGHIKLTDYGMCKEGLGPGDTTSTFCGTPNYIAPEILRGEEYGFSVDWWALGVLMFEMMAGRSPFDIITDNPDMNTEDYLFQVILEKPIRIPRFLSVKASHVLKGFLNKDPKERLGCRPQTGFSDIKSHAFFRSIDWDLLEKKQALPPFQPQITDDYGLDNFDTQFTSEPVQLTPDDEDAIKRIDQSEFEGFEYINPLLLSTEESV

Another assay has as its target T3, IKKβ(h) (human, UniProt O14920 1-756, limits assumed).
T3 sequence (looked up): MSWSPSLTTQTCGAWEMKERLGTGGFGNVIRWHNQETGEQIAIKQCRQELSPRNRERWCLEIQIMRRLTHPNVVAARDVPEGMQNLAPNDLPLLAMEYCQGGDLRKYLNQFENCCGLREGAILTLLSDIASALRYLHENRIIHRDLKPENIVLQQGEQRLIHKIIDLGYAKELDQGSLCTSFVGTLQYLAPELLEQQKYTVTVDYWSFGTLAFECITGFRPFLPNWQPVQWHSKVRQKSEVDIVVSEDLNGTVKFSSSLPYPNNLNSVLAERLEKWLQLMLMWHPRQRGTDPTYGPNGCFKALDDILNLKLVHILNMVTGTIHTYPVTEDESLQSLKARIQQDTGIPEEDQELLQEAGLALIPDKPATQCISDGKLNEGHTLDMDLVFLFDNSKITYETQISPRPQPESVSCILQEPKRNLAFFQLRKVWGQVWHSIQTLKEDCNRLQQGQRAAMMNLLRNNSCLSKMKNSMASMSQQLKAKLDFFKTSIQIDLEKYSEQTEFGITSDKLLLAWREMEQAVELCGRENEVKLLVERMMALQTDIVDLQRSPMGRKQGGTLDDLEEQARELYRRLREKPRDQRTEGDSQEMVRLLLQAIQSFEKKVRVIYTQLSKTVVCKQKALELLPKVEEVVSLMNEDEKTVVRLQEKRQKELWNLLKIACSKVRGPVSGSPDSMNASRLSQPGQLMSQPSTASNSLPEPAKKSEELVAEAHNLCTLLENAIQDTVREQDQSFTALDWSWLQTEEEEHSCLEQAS

Assay [2] deals with T4, SGK (SGK1) Serum/glucocorticoid regulated kinase (human, UniProt O00141 60-431, limits assumed).
T4 sequence (looked up): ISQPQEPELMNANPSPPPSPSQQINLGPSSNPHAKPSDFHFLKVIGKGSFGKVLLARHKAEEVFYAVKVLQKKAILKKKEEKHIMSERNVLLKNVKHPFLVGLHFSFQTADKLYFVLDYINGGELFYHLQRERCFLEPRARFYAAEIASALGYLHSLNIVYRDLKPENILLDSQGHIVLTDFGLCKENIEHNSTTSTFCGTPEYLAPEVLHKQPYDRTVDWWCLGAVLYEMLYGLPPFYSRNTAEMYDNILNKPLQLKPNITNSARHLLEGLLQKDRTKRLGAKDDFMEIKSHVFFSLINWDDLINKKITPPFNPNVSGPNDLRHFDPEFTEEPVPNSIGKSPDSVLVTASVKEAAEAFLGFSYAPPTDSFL

PKBβ (h), sequence (P31751 whole entry): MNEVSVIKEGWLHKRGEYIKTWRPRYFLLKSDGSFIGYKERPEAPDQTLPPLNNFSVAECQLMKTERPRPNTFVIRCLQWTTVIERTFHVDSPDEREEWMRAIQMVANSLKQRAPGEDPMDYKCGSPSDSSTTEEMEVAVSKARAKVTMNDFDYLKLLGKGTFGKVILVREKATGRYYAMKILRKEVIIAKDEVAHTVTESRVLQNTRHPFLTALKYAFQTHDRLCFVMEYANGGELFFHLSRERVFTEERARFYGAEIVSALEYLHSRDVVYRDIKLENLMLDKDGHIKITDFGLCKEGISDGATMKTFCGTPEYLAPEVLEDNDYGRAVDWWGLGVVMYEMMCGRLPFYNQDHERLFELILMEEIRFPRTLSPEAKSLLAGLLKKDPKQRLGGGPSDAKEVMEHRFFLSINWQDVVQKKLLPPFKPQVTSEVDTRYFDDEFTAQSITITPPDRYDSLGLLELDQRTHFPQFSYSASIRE
PKCβII (h), sequence (P05771 other isoform, or with tags, fused parts or gaps limits assumed): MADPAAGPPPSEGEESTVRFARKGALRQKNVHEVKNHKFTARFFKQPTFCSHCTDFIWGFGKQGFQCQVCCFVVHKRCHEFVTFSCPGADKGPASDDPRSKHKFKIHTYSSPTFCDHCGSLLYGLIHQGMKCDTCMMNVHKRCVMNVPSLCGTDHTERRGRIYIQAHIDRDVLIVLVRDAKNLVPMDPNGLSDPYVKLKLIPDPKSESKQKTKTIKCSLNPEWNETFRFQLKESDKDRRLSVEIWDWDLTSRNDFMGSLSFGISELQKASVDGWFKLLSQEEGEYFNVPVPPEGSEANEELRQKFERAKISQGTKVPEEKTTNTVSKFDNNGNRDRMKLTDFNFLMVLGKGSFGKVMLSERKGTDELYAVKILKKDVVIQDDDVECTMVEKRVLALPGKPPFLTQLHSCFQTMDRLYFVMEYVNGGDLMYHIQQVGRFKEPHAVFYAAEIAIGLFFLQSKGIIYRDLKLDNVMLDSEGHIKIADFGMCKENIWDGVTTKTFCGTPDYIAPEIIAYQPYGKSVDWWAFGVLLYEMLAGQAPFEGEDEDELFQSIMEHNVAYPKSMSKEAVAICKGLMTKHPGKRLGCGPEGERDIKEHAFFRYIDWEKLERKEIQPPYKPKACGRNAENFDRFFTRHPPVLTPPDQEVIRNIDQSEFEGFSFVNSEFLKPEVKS
IR (h), sequence (P06213 1005-1310 limits assumed): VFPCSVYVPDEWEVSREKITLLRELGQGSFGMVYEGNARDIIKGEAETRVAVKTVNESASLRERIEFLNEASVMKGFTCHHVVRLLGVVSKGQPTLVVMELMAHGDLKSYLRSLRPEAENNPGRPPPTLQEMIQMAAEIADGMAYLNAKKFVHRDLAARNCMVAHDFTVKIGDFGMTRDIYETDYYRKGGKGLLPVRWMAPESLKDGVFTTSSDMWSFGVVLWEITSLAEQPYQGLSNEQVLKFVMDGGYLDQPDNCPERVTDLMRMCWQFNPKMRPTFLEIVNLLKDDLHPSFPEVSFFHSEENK
GSK3β (h), sequence (P49841 whole entry): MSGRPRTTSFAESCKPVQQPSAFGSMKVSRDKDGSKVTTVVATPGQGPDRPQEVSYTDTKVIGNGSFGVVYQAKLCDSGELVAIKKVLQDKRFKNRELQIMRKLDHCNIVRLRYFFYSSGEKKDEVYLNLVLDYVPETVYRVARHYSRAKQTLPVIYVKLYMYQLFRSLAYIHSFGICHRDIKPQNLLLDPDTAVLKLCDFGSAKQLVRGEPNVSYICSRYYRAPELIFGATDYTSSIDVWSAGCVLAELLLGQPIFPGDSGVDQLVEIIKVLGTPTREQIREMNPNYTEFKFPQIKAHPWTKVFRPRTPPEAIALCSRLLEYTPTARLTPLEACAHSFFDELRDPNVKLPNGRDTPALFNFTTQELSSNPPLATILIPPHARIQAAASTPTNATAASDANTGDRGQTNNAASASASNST
MAPK1 (h), sequence (P28482 2-360): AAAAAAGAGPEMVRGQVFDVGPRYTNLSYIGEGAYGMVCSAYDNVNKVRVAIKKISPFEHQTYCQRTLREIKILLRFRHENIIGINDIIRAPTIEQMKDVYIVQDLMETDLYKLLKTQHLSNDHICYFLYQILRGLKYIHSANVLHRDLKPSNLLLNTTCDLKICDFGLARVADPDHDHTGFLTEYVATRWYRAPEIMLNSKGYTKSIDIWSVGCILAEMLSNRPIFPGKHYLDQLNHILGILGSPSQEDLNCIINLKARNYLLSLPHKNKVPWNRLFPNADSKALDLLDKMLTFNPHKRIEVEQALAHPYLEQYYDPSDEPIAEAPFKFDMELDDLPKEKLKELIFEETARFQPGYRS
MAPK2 (h), sequence (P28482 whole entry): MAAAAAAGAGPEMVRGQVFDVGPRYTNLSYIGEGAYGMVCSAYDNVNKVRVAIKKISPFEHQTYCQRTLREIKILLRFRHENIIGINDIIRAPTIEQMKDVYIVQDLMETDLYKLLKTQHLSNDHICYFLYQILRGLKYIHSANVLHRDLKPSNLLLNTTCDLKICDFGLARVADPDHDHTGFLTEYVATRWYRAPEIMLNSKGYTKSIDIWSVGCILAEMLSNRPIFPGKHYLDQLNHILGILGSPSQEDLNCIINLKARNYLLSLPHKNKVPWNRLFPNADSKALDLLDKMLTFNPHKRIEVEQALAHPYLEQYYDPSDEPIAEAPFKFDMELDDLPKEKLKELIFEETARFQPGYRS

SGRPPMIVWFNRPFLIAVSHTHGQTILFMAKVINPVGA [D3 peptide]: the “D3 at 0.1 µM % activity” value in the assay with IR (h) worked out at 96 % activity; in assay [1], 73 % activity; with MAPK1 (h), 86 % activity; with PKCβII (h), 101 % activity; in the assay with PDK1 (h), 98 % activity; in the assay with PKCζ (h), 95 % activity. Moreover, the “D3 at 0.1 µM % activity” value with MAPK2 (h) worked out at 96 % activity; with PKA(h), 115 % activity; with GSK3β (h) it was 101 % activity; in the assay with IKKβ(h) it was 103 % activity; in the assay with PKBβ (h), 63 % activity; in assay [2], 74 % activity. Moreover, the “D3 at 1 µm % activity” value with IR (h) was 103 % activity; in assay [1] it was 22 % activity; with MAPK1 (h), 92 % activity; in the assay with PKCβII (h), 103 % activity; with PDK1 (h), 108 % activity; with PKCζ (h), 42 % activity. Further, the “D3 at 1 µm % activity” value stood at 96 % activity in the assay with MAPK2 (h); 105 % activity with PKA(h); 100 % activity with GSK3β (h); 71 % activity in the assay with IKKβ(h); 12 % activity with PKBβ (h); 5 % activity in assay [2].
